These results are taken from patent US20210070868A1.

The target of this experiment is w.t. (UniProt P08581). Put plainly: ELISA. Background: An ELISA detects its analyte on a solid surface through an enzyme-linked reagent.

The term Kd denotes the free concentration of one partner at which half of the binding sites on the other are occupied at equilibrium, for simple one-to-one binding. A higher Kd goes with weaker binding. As to DN30, the Kd was found to be 0.446 nM.
